Source: a protein production outcome set (Wang et al. 2014)

Test: label from the status in PepcDB records

Sequence | protein production
MVKPLRLNDRHQQILRATVQHYIATAEPVGSHTLAQEYQFAVSSATIRNALGQLEKAGLLYQPHVSAGRVPSDSGYRIYVDNLLTWSDRQSRTVKQRLENEINGDNWHFEALIQRMGQILAGLSGYIALITFPQTETVQLRHLQLMLLPSHQILIILVTDSYHTHSATLDLPAAMEAKEEGELEQELAIFSNFLNAQLRGKNLSELSHLNWQELDQKFSIYADFLKGLQQQIKPLLQRRMAGPLVVHGVSKVIQQPEFSQLEQVQMLLSLLEQEQDKLFSLLFDPDNYGDNLANLGQEMNLLTGETMPKTRPVVTIRIGAENPLESMHPCTLVSAIYRQQEIPMGSVSILGPTRMVYQQTIPLVEQAAECLSEALSKN | failed
MVKSIVILIETVTMKIPAVYSDGSFKTFNDSETTAQKLVDSGVVNTFAFGPTLVENGKVAVSENEEVGQDMADNPRTAIVVNEESDRSVHYIVIVSDGRTSESSGLTLYEMAELMKSYGVMTGYNLDVGDSSTMYSNGQVINKPTRKRKQNLRKGGERYRLHRLLKNLLASTFSPPILVLEHHHHHH | not failed
MVLFHLIKKESLQIFRNRTALLMMVIFPILMIVILSFAFKSSFNTATTVPKLTIRYQLEGEKTDYQKNFLAFLKVLNQKLHLETKPSNSLEKDRQRVSEGALTAVLEVKKNQTIKVITNNINQQNADLINMLVKNYVDNAKTYDSIAALYPQQLNHIRKRSVDYVKVSSIQTSKGMTSADYYAISMFTMITFYSMMSAMNLVLSDRQQRITNRIHLTGVSPSFLVFGKLIGAMLATTVQLSLLYIFTRFVLRVNWGTNEWMLIGITASLVYLSVAIGIGLGISIKNEAFLTVASNTIIPIFAFLGGSYVPLTTLHSSIINQLSNISPIKWVNDSLFYLIFGGQYNPIPVTLIVNISIGTIFIILALIGMRKQVTT | failed
MVLKERHKKICLLPSYSRLAHYPGLLMLTTLIYRSHIRGDEPVKKIEEMVSIANRRNMRSDVTGILLFNGSHFFQLLEGPEEQVQMIYRAICQDPRHYNIVELLCDYAPARRFGKAGMELFDLRLHERDDVLQAVFDKGTSKFQLTYDDRALQFFRTFVLATEQSTYFEIPAEDSWLFIADGSDKELDSCTLSSNINDHFAFHPIVDPLSRRIIAFEAIVQKNEDSPSAIAVGQRKDEEIYTADLKSKALAFAMAHALKLGDKMISINLLPMTLVNKPDAVSFLLDEIKANALVPEQIIVEFTESEVISRFDEFAEAVKSLKAAGISVAIDHFGAGFAGLLLLSRFQPDRIKISQELITNVHKSGPRQAIIQAIMKCCTSLEIQVSAMGVATPEEWMWLESAGIEMFQGDLFSKAKLNGIPSVAWPEKK | failed
MVLVILDFVVEWRDRVMVRWWSLLLDQGIEWSVKVVKRLLDQGVEWFDMIRGCQSSPLLLLAIKMCTEATKSSQIIMMGVNLRSLKDGFIDKGNSRVHLMANMRKANSLDDDSKPDIHSRDRDPHNYTTS | failed
MVMARNRNSNQLASHGAQAALDQMKYEIAQEFGVQLGADTSSRANGSVGGEITKRLVAMAEQQLGGGYTRLEHHHHHH | not failed
MVMMFIGIDDTDSPNKYCTTYIATLLIEELKGCGYSVDMPKLIRMNPMVKYKTRGNGGVAIHILDELYSKDKEEIKNITISLVEKYTDFECENTNPGIVFLDEAKYKENREKLTNYYKKVLYDIVSVDYAEKFILKVGGEFIKYKLGRGIIGALGAISSTPPYTYELLAYRKKEMWGKKREIDEKSVIEMDKETFPYTFDNYDYENEKILIAPNTPCPVLFGIRGIDAEILLKAMHKIEGEKPERFMIFKTNHGTDVHLRKMNIKDIYPNTGVIVYGRVVEEPRDIEGGHVIFKLSDGTGEIDCMAYEPTKGFRDIIRKLIVGDYIAVYGTVREKPLGINIEKIKILKLEKKFVKDKRCPYCGGTLKAKGKKAGYKCKKCKKTIAYDEIKMIEVERDLKTGFYEVPGSARRHLSKPIQLIDLI | not failed
MVMNKLILFGSIFFKCWQQNRISISAGYLTYNTMLALVPLVMVVFSVFTFFPIFTEATELLKTFVYDNFAPNAGNVVEEYVELFVSNSQKMGLVSMLGLFIVAVMLISSIDQSLNDIWHNTRKRSLLLSFLLYILILIFAPLLAGASIAITTYIMSFEVFSENGIFSFSHYLLEYAPFLLVWLLFTLVYWIVPNTTVAFRHATIGALFAASFFTLGKQAFIWYVVTFPSYQAIYGTLAVLPIMIVWIHLSWQVVLLGGQFAAVLKEINMLKENER | not failed
MVNNDTLSGDVYTASEAKQVQNVSYGTIVNVRPVQIQGGDDSNVIGAIGGAVLGGFLGNTVGGGTGRSLATAAGAVAGGVTGQGVQSAMNKTQGVELEIRKDDGNTIMVVQKQGNTRFSPGQRVVLASNGSQVTVSPRLEHHHHHH | failed
MVNPIATGILVLAALYFARSILMPLAFSLFVIALAWPIQMALQRRIPRLAALLITLLLVVLVIVIVGSAIVWGLGELSQWLFYNTGRLQAIYASWTDWLEGHGIAIVSPLGELFSISRLVGLTHSLVTRLNSVAGFAVLTFIFVMLGLLEAEDLQRRLRSSLAQPQGEMLLHIGREIAGKIRRFMVVRSLACILTGLVVWAFTLVAGLELASAWAAIAFALNYIPFIGPLMATIFPTLFAIAQSGSWQLALIVFVGLNVIQFAIGSYLEPFLTGASLAISPFAVMFAVFFWSFMWGVPGAFIGVPILIVVVTWCAHEQSTRWIATLLSGGRQST | failed
MVNQPLVSIIIPAYRAENTIAFTVRSVLAQTYDHWQVAIGVDDQVDYLQLLAEQGINDPRLKQVFTGGIGSGEAIARNKAVSICDGDILANLDADDAFASDRLEKLVPLAEKYGVAIDNTGVYNSELVLYKQPFPQRQALNFATAADILSPRIPFFPVFQRQLLGDGWTKVPFAADVLFNLELLSRTEKVAIHPEPLYRYYKRDNSITQSANAFETAEKAYLTILSLLDEGALTLTDAIRQAARQEFSENLALNKVFRRYMEEGRCQNLEQFLDMTNNGQKIEFVSNLNLEHHHHHH | not failed
MVNTRTRMSAIVATLGLVGSLALATASADESRTSGSAAQIALTEVARAQNPTAGAAGPQDTVWIAERAGTVRVLGDDGLGEPVLDISDETTTDGERGLLGLAFDERFAHLYLSYTDLEGTSTVDEFAVQDGTVREDTRRTVLTQEQPESNHNGGAITFGPDGYLYIALGDGGGGGDPQGNGQKLDTLLGKLLRIDPQGGDPYAIPEDNPFADDPDARGEIWSYGLRNPWRFSFDAGSGDLLIGDVGQSDWEEIDWAPASSPGGENYGWSQMEGTHPFRGGTEPANHVPPIHEYDRTGLGCSVTGGYVYRGEAVPGLAGQYVYSDYCDGTLRSLEIEDGRVTGEHDLGVNGGEVVSFAQDGDGELYVLAIGGTVSRVDPA | failed
MVNVFYEEAGALKVGSILTDNTTSLQIESAHGKRSKIKAALVLLRFENPPMHGFMQQAQEKAADIDVNFLWECCEENREFTGQELAGDYFGHTPDPLETAAILILLSQNPIYFHKKGVGRFKAAPPEILQAALASREKKRLAEEKQAGYVQQLMAFELPDTFRPLLDDLLYKPDKNTIEWKALETACDATRLSVPRLLERCGAIPSTHDYHYNQFLYEHFPEGIDTDAYPADFHLLDPEDLPVAGVKAFSIDDATTTEIDDAFSVTPLNFGSFRIGIHIATPALGVAPHSLLDKFAAKRLSTVYLPGRKITMLPESVIQHFTLGEAHHRPVLSLYLEVADDFTVTRTFSRIETIEVSTNLRLDSLERQFNEITLRENQTDYPFAHELRLLWNFSCKMEKLRGKDQDINSEKIDYSFIIDQDRVSVYERRRGAPIDKVVSELMIFANAEWGKQLADAGYAGIYRSQGNGKVKMSLSPAPHQGLGVSQYAWSSSPMRRYVDLINQRQLIALVSGNPPPYTREDDTLLIAMRDFEMAYATYAEFQRGMERYWCLRWLLQENISTSGAIVIKENMIKLDRLPLIVRIPSLPELAPGTLVAVGVSQIDLIDRSLNASFLGKSEG | failed
MVPLPRSMRVLHWLTVLCLVMAASLILLRAELEGRALRQWLLEGHRHFGLMVLLLFVLRVSLRLRLRALPPGPPSPLIMRLAAGGTHVAMYALMLALPLIGWSLSNAYGKTVYLFGITLPNLVAADEDLADTLGTWHLNAAWALLALVAVHIVAALVHHLVLRDGLLHRVLPGKHHR | failed
